Results published in the nanobody polyreactivity screen of Harvey et al. (2022).

Experiment: yeast display, Sf9 membrane polyspecificity reagent, FACS + sequencing; frameworks hold sequencing errors
How it was run: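 Polyreactivity labels are assigned by the sorting gate from which each nanobody was recovered. The gates were low and high (top ~1%), set on anti-HA fluorescence for expression and streptavidin fluorescence for reagent binding. Before sorting, galactose-induced (36–48 hours) yeast display cells were stained for 1 hour at 4 °C with 10% biotinylated, detergent-solubilized Sf9 membrane reagent.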

Row | Sequence | polyreactivity (PSR sort gate)
1 | QVQLVESGGGLVQAGGSLRLSCAASGFIFLRYGMGWYRKAPGKERELVASIDSTGGSTYADSVKGRFTISRDNAKNTVYLQMNSLKPEDTAVYYCAAAYYIVSERDYWGQGTQVTVSS | low polyreactivity
2 | QVQLVESGGGLVQAGGSLRLSCAASGFIFLYNAMGWYRQAPGKERELVATITSGGSTNYADSVKGRFTISRDNAKNTVYLQMNSLKPEDTAVYYCAVRRKAYYSYYYHDPYYYWGQGTQVTVSS | low polyreactivity
3 | QVQLVESGGGLVQAGGSLRLSCAASGFIFLYYAMGWYIQAPGKERELVAAITTRGGRTYYADSVKGRFTISRDNAKNTVYLQMNSLKPEDTAVYYCAADHLYWGLEYESWGQGTQVTVSS | low polyreactivity
4 | QVQLVESGGGLVQAGGSLRLSCAASGFIFNAYAMGWYRQAPGKERELVAAISTRGSNTYYADSVKGRFTISRDNAKNTVYLQMNSLKPEDTAVYDCAARGYVTYSKSNYWGQGTQVTVSS | high polyreactivity
5 | QVQLVESGGGLVQAGGSLRLSCAASGFIFNIYAMGWYRQAPGKERELVAAITDDGSTNYADSVKGRFTISRDNAKNTVYLQMNSLKPEDTAVYYCAADDYYKFDYWGQGTQVTVSS | low polyreactivity
6 | QVQLVESGGGLVQAGGSLRLSCAASGFIFNLYAMGWYRQAPGKEREFVAGISYSGNTYYADSVKGRFTISRDNAKNTVYLQMNSLKPEDTAVYYCAARRGYNDGYWGQGTKVTVSS | high polyreactivity
7 | QVQLVESGGGLVQAGGSLRLSCAASGFIFNRNAMGWYRQAPGKERELVAGINSGGTTKYADSVKGRFTISRDNAKNTVYLQMNSLKPEDTAVYYCNRDWWWDHGRWYRTSRYDYWGQGTQVTVSS | low polyreactivity
8 | QVQLVESGGGLVQAGGSLRLSCAASGFIFNRYAMGWYRPAPGNERELVATITRRGGRTYYADSVKGRFTISRDNAKNTVYLQMNSLKPEDTALYYCNADPNVPVETFDYWGQVTQVTVSS | high polyreactivity
9 | QVQLVESGGGLVQAGGSLRLSCAASGFIFNSNARGWYRQAPGKERELVAAISGLGGSTYYADSVKGRFTISRDNAKNTVYIQMNSLKPEDTAVYYCAADVTYGTKWAYDYWGQGTQVTVSS | high polyreactivity
10 | QVQLVESGGGLVQAGGSLRLSCAASGFIFNVNAMGWYRQAPGKERELVAAITGGGGSTYYADSVKGRFTISRDNAKNTVYLQMNSLKPEDTAVYYCARGRTIRSSRTGGSWGQGTQVTVSS | high polyreactivity
11 | QVQLVESGGGLVQAGGSLRLSCAASGFIFNWYAMGWYRQAPGKERELVAAITSGGSTNYADSVKGRFTISRDNAKNTVYLQMNSLKTEDTAVYYCAARHWRRYGYWGQGTQVTVSS | high polyreactivity
12 | QVQLVESGGGLVQAGGSLRLSCAASGFIFNYNAMGWYRQAPGKERELVAAIRTSSGSTYYADSVKGRFTISRDNAKNTVYLQMNSLKPEDTAVYYCGKTRYSTYSPIYYYWGQGTQVTVSS | high polyreactivity
13 | QVQLVESGGGLVQAGGSLRLSCAASGFIFNYYTMGWYRQAPGKERELVAVITGGGGSTYYADSVKGRFTISRDNAKNTVYLQMNSLKPEDTAVYYCAAEWFSWGQGTQITVSS | low polyreactivity
14 | QVQLVESGGGLVQAGGSLRLSCAASGFIFPANAMGWYRQAPGKEREFVAAISRSGGTTYYADSVKGRFTISRDNAKNTVYLQMNSLKPEDTAVYYCAARYAIGPGYDYWGQGTQVTVSS | high polyreactivity
15 | QVQLVESGGGLVQAGGSLRLSCAASGFIFPDYAMGWYRPAPGKERELVAAINRRGSRTYYADSVKGRFTISRDNAKNTVYLQMNSLKPEDTAVYYCNRDVGKVYAVIYDYWGQGTQVTVSS | high polyreactivity
16 | QVQLVESGGGLVQAGGSLRLSCAASGFIFPGHAMGWYRQAPGKERELVAAISTSGGSTYYADSVKGRFTISRDNAKNTVYLQMNSLKPEDTAVYYCATKRPYVDDYGYWGQGTQVTVSS | high polyreactivity
17 | QVQLVESGGGLVQAGGSLRLSCAASGFIFPIYAMGWYRQEHGKERELVAGISGSGTSTYYADSVKGRFTISLDYAKNTVYLQMNSLKPVDNAVYYCNAKYPWGNYKSVSYDYWGQGTQVTVSS | high polyreactivity
18 | QVQLVESGGGLVQAGGSLRLSCAASGFIFPPYAMGWYRQAPGTERELVAAIRISGGSTYYADSVKGRFTISRDNAKNTVYFHLNSLKPEDTAVYYCAARYVSSTPAFAYYYWGQGTQVTVSS | high polyreactivity
19 | QVQLVESGGGLVQAGGSLRLSCAASGFIFPPYDMGWYRQAPGKERELVAGISDVGTTYYADSVKGRYTISRDNAKNPVYLQMNSLKPEDSAVYYCAAESQGDDQFWTGGYDSWGQGTQVTVSS | low polyreactivity
20 | QVQLVESGGGLVQAGGSLRLSCAASGFIFPPYTMGWYRQAPGKERELVAAINSGGSTYYADSVKGRFTISRDNAKNTVYLPMNSLKPEDTAVYYCAADTDRALAHFDYWGQGTQVTVSS | low polyreactivity
21 | QVQLVESGGGLVQAGGSLRLSCAASGFIFPTYAMGWYRQAPGKERELVATITTNAGGTHYADSVKGRFTISRDNAKNTVYLQMNSLKPEDTAVYYCAAKQYRPKQRKYWTRIYDYWGQGTQVTVSS | low polyreactivity

Row | Sequence | polyreactivity (PSR sort gate)
22 | QVQLVESGGGLVQAGGSLRLSCAASGFIFPVNARGGSRQAPGKERELHADISSDGSTNYADSVKGRFTISRDNAKNTVYLQMNSLKPEDTAVYYCAREDNLRHQSDSRYDYWGQGTQVTVSS | low polyreactivity
23 | QVQLVESGGGLVQAGGSLRLSCAASGFIFPWYTMGWYRQAPGKERELVAVINQSGGSTYYADSVKGRFTISRDNAKNTVYLQMNSLKPEDTAVYYCAAKSYRGSVKLRWSERGYWGQGTQVTVSS | high polyreactivity
24 | QVQLVESGGGLVQAGGSLRLSCAASGFIFPYYAMGWYRQAPGKERELVAAISSGGSTYYADSVKGRFTISRDNAKNSVYLQMNSLKPEDTAVYYCAVRITYWTGEFDYWGQGTQVTVSS | high polyreactivity
25 | QVQLVESGGGLVQAGGSLRLSCAASGFIFPYYAMGWYRQAPGKERELVAANSRRGTSTFYADSVKGRFTISRDNAKNNVYLQMNSLKTEDTAVYYCNAEYGIGDDSWVQGTQVTVSS | high polyreactivity
26 | QVQLVESGGGLVQAGGSLRLSCAASGFIFQANAMGWYRQAPGKERELVAAIDDGDSTYADSVKGRFTISRDNAKNTVYLQMNSLKPEDTAVYYCATRRNRSYDYWGQGTQVTVSS | low polyreactivity
27 | QVQLVESGGGLVQAGGSLRLSCAASGFIFQGYARGWYRQAPGKERELVATISKSGGSTYYADSVKGRFTISRDTAKNTVYLQMTSLKPEDTAVYYCNARPGQSGARFGYWGQGTQVTVSS | high polyreactivity
28 | QVQLVESGGGLVQAGGSLRLSCAASGFIFQKYAMGWYRQAPGKERELVAAISRSGGSTYYADSVKGRFTISRDNAKNTDYLQMNSLKPEDTAVYYCAARYKGRAFWMDYWGQGTQVTVSS | high polyreactivity
29 | QVQLVESGGGLVQAGGSLRLSCAASGFIFQPYAMGWSRQAPGKERELVAAITSRGGRTYYADSVKGRFTISRDNAKNTVYLQMNSLKPEDTAVYYCNADIYASEYYYWGQGTQLTVSS | low polyreactivity
30 | QVQLVESGGGLVQAGGSLRLSCAASGFIFQTNVMGWYRQAPGKERELVAAISSGDSTYYADSVKGRFTISRDNAKNTVYLQMNSLKPEDTAVYYCAADSIRTLLTGNTVYIWYGYWGQGTQVTVSS | low polyreactivity
31 | QVQLVESGGGLVQAGGSLRLSCAASGFIFQWYAMGWYRQAPGKERELVAAISIGDSTYYADSVKGRFTISRDNAKNTVYLQMNSLKPADTAVYFCNADPWGYYSVIPLYEYDYWGQGTQVTVSS | low polyreactivity
32 | QVQLVESGGGLVQAGGSLRLSCAASGFIFQWYAMGWYRQAPGKERELVAAISIGDSTYYADSVKGRFTISRDNAKNTVYLQMNSLKPEDTAVYYCNSDPWGYYCVIPLYEYDYWGQGTQVTVSS | low polyreactivity
33 | QVQLVESGGGLVQAGGSLRLSCAASGFIFQYNAMGWYRQAPGKERELVAAISKSGGRTYYADSVKGRFTISRDNPKNTVDLQMNSLKPEDTAVYYCAALYVWLWGYRFDYWGQGTQVTVSS | high polyreactivity
34 | QVQLVESGGGLVQAGGSLRLSCAASGFIFQYYGMGWYRQAPGQVRELVAAIDSRGGSTYYADSVKGRFTISRDNAKNTVSLQMNSLKPADTAVYYCAAMGLYQGTLNHFYYWGQGTQVTVAS | low polyreactivity
35 | QVQLVESGGGLVQAGGSLRLSCAASGFIFRAYAMGWYRQAPGKERELVAAITKRSGTTYYADSVKGRFTISRDNAKNTVYLQMHSLKPEDTAVYYCAARYYRDYRWYTYAYDYWGQGTQVTVSS | high polyreactivity
36 | QVQLVESGGGLVQAGGSLRLSCAASGFIFRAYTKGWYRQAPGKERELVAAITSSGGRTNYADSVKGRFTISRDNAKNTVYLQMNSLKPEDTAVYYCATVYAKWKQFDYWGQGTQVTVSS | high polyreactivity
37 | QVQLVESGGGLVQAGGSLRLSCAASGFIFRAYTMGWYRQAPGKERELVAAITSSGGRTYYADSVKGRFTISRDNAKNTVYLQMNSLKPEDTAVYYCATVYAKWKQFDYWGQGTQVTVSS | high polyreactivity
38 | QVQLVESGGGLVQAGGSLRLSCAASGFIFRFNAMGWYRQAPGKEREMVAAISWRGGSTYYADSVKGRFTISRDNAKNTVYLQMNSLKPEDTAVYYCAADVTRYYRYGYNYWGQGSQVTVSS | high polyreactivity
39 | QVQLVESGGGLVQAGGSLRLSCAASGFIFRFYAMGWYRQAPGKERELVAAISSDGSTNYADSVKGRFTISRDNAKNTVYLQMNSLKPEDTAVYYCNADYYEYYSGPTLVVYIYGYWGQGTQVTVSS | low polyreactivity
40 | QVQLVESGGGLVQAGGSLRLSCAASGFIFRGYAMGWYRQAPGKERELVAAINYSGGSTYYADSVKGRFTISRDNAKNTVYLQMNSLKPEDTAVYYCAAGKRGDDDYWGQGTQVTVSS | high polyreactivity
41 | QVQLVESGGGLVQAGGSLRLSCAASGFIFRGYAMGWYRQAPGKERELVAAITSSGGDTYYADSVKGRFTISRDNAKNTVYLQMNSLKPEDTAVYYCNARVYASGTEGDYWGQGTQVTVSS | low polyreactivity
